Measurements published in US20200040396A1 (TECHNION RESEARCH AND DEVELOPMENT FOUNDATION, published 2020).

T1: WT-ZnT2-YC (human, UniProt Q9BRI3 1-372, Carries a C-terminal YC reporter (non-fluorescent C-terminal half of YFP), not included in the letters.)
T1 construct: BiFC construct expressed in living MCF-7 cells; not shown: YC, the C-terminal half of YFP, and any linker to it
T1 sequence: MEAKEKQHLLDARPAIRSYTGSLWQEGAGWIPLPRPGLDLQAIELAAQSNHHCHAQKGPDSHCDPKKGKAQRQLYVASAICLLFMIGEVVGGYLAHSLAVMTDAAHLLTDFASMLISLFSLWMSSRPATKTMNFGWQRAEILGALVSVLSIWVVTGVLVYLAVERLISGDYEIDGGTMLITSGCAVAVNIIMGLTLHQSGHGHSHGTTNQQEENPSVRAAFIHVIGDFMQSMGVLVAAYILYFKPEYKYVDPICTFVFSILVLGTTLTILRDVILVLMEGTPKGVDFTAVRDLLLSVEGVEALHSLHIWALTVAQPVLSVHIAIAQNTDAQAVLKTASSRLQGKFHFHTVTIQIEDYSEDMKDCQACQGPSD

B1: WT-ZnT2-YN (other)
chain: T1 sequence
modifications: Carries a C-terminal YN reporter (non-fluorescent N-terminal half of YFP), not included in the letters.
notes: BiFC construct expressed in living MCF-7 cells; not shown: YN, the N-terminal half of YFP, and any linker to it
B2: Δ9AA-ZnT2-YN (other)
chain: MEAKEKQHLLDARPAIRSYTGSLWQEGAGWIPLPRPGLDLQAIELAAQSNHHCHAQKGPDSHCDPKKGKAQRQLYVASAICLLFMIGEVVGGYLAHSLAVMTDAAHLLTDFASMLISLFSLWMSSRPATKTMNFGWQRAEILGALVSVLSIWVVTGVLVYLAVERLISGDYEIDGGTMLITSGCAVAVNIIMGLTLHQSGHGHSHGTTNQQEENPSVRAAFIHVIGDFMQSMGVLVAAYILYFKPEYKYVDPICTFVFSILVLGTTLTILRDVILVLMEAVRDLLLSVEGVEALHSLHIWALTVAQPVLSVHIAIAQNTDAQAVLKTASSRLQGKFHFHTVTIQIEDYSEDMKDCQACQGPSD
modifications: Carries a C-terminal YN reporter (non-fluorescent N-terminal half of YFP), not included in the letters.
notes: Deletion introduced into the ZnT2 BiFC plasmid by site-directed mutagenesis (27 bp, 839_865del); also called Δ9AA-YN; truncated Δ9AA-ZnT2; not shown: YN, the N-terminal half of YFP, and any linker to it
B3: Δ9AA-ZnT2-YC (other)
chain: B2 chain
modifications: Carries a C-terminal YC reporter (non-fluorescent C-terminal half of YFP), not included in the letters.
notes: Deletion introduced into the ZnT2 BiFC plasmid by site-directed mutagenesis (27 bp, 839_865del); also called Δ9AA-YC; truncated Δ9AA-ZnT2; not shown: YC, the C-terminal half of YFP, and any linker to it

Experiments:
WT-ZnT2-YC [1] = target: T1, WT-ZnT2-YC; assay: western blot of BiFC transfectants (SDS-metastable dimers), anti-ZnT2 antibody
Experimental: MCF-7 cells were transiently transfected with the designated plasmids (3 μg in single construct transfection and 1.5 μg DNA of each construct in co-transfections). Membrane proteins were isolated on ice using an extraction buffer as previously described (Golan Y., et al., Journal of Biological Chemistry, 2015, 290(14):9050-63). Briefly, proteins (30 μg) were resolved by electrophoresis on 10% polyacrylamide gels, electroblotted onto cellulose nitrate membranes, blocked with Tris-buffered saline (TBS)-milk and reacted with mouse anti-ZnT2 monoclonal antibody (at 1:2,000 dilution, 1 hr at room temperature; generously provided by Prof T Kambe, Kyoto University, Kyoto, Japan). […] Similarly, actual protein loading onto the SDS-PAGE gels was confirmed by blot reprobing with a rabbit polyclonal antibody against the a subunit of Na⁺/K⁺ ATPase (KETTY at 1:3,000 dilution; kindly provided by Prof. S. J. D. Karlish, Weizmann Institute of Science, Rehovot, Israel) and detected with horseradish peroxidase-conjugated goat anti-rabbit IgG (1:15,000 dilution; Jackson Immunoresearch Labs, West Grove, Pa.).
The dimerization results were further confirmed by western blot analysis. […] However, in contrast to the ZnT2 protein which was predominantly present in the homodimer form (FIG. 4C, uppermost band), upon co-transfection of Δ9AA-YN+Δ9AA-YC no homodimers were detected (FIG. 4C). […]

β2AR-YC = target: T2, β2AR-YC (UniProt P07550 1-413); assay: BiFC in MCF-7 cells, YFP fluorescence by flow cytometry
T2 construct: whole, on cells; Negative control partner in the BiFC assay; not shown: YC: non-fluorescent C-terminal half of YFP (BiFC tag)
Experimental: (§1) The ability of the alternative 3′ splice variant (Δ9AA) ZnT2 to form homodimers was evaluated using the bimolecular fluorescence complementation (BiFC) assay that has been previously applied for the detection of in situ dimerization of ZnT2 and other ZnTs in living cells. High YFP fluorescence intensity indicates a strong interaction between the two tagged proteins, as this enables the refolding of the two non-fluorescent halves of YFP (YN and YC) into a fully fluorescent protein.

Δ9AA-ZnT2-YC = target: B3; assay: as above
Experimental: as §1

WT-ZnT2-YC [2] = target: T1, WT-ZnT2-YC; assay: as above
Experimental: as §1

WT-ZnT2-YN = target: B1; assay: as above
Experimental: as §1

Does B1 bind (WT-ZnT2-YC [1])?
Result: binds

Does B1 bind (β2AR-YC)?
Result: no binding

What does the source list for B2?
binding result (Δ9AA-ZnT2-YC): no binding; binding result (WT-ZnT2-YC [2]): no binding

Does B3 bind (WT-ZnT2-YN)?
Result: no binding
